{"source": "patent US20260125454A1", "about": "(SHANGHAI JUNSHI BIOSCIENCES, published 2026)", "binders": {"B1": {"name": "hu226 (antibody, V domains shown)", "VH": "QVQLVQSGAEVKKPGASVKVSCKASGYTFTGYTMNWVRQAPGQRLEWMGLINPYIGNTHYNQKFKDRVTFTVDRSSSTAYMELSSLRSEDTAVYYCARELDSGFDYWGQGTLVTVSS", "VL": "DVVMTQSPLSLPVTLGQPASISCRSSQNIVHSNGDTYLEWYQQRPGQSPRLLIYKVSNRFSGVPDRFSGSGSGTDFTLKISRVEAEDVGVYYCYQGSHVPWTFGQGTKLEIK", "notes": "3C1 HC-2/3C1 LC-1"}, "B2": {"name": "hu229 (antibody, V domains shown)", "VH": "B1 VH", "VL": "DVVMTQSPDSLAVSLGERATINCRSSQNIVHSNADTYLEWYQQKPGQPPKLLIYKVSNRFSGVPDRFSGSGSGTDFTLTISSLQAEDVAVYYCYQGSHVPWTFGQGTKLEIK", "notes": "3C1 HC-2/3C1 LC-4"}, "B3": {"name": "hu222 (antibody, V domains shown)", "VH": "B1 VH with T28S", "VL": "B1 VL", "notes": "3C1 HC-1/3C1 LC-1"}, "B4": {"name": "hu234 (antibody, V domains shown)", "VH": "B1 VH with R44G, S85R, E89D", "VL": "B1 VL", "notes": "3C1 HC-4/3C1 LC-1"}, "B5": {"name": "hu232 (antibody, V domains shown)", "VH": "QVQLVQSGSELKKPGASVKVSCKASGYTFTGYTMNWVRQAPGQGLEWMGLINPYIGNTHYNQKFKDRFVFSVDRSSSTAYLQISSLKAEDTAVYYCARELDSGFDYWGQGTLVTVSS", "VL": "B2 VL with A34G", "notes": "3C1 HC-3/3C1 LC-3"}, "B6": {"name": "hu230 (antibody, V domains shown)", "VH": "B5 VH", "VL": "B1 VL", "notes": "3C1 HC-3/3C1 LC-1"}, "B7": {"name": "hu223 (antibody, V domains shown)", "VH": "B1 VH with T28S", "VL": "B1 VL with S7T, P12S, L15P, Q42L, R44K, R50Q", "notes": "3C1 HC-1/3C1 LC-2"}, "B8": {"name": "hu233 (antibody, V domains shown)", "VH": "B5 VH", "VL": "B2 VL", "notes": "3C1 HC-3/3C1 LC-4"}, "B9": {"name": "hu235 (antibody, V domains shown)", "VH": "B1 VH with R44G, S85R, E89D", "VL": "B1 VL with S7T, P12S, L15P, Q42L, R44K, R50Q", "notes": "3C1 HC-4/3C1 LC-2"}, "B10": {"name": "hu225 (antibody, V domains shown)", "VH": "B1 VH with T28S", "VL": "B2 VL", "notes": "3C1 HC-1/3C1 LC-4"}, "B11": {"name": "hu228 (antibody, human IgG4 S228P, kappa, V domains shown)", "VH": "B1 VH", "VL": "DVVMTQSPDSLAVSLGERATINCRSSQNIVHSNGDTYLEWYQQKPGQPPKLLIYKVSNRFSGVPDRFSGSGSGTDFTLTISSLQAEDVAVYYCYQGSHVPWTFGQGTKLEIKR"}, "B12": {"name": "hu227 (antibody, V domains shown)", "VH": "B1 VH", "VL": "B1 VL with S7T, P12S, L15P, Q42L, R44K, R50Q", "notes": "3C1 HC-2/3C1 LC-2"}, "B13": {"name": "hu74 (antibody, V domains shown)", "VH": "QVQLVQSGSELKKPGASVKVSCKASGYTFTDFNMHWVRQAPGQGLEWMGYIYPYNGDVVYNQNFTNRFVLSVDSSSSTAYLQISSLKAEDTAVYYCAREGLGGYWGQGTLVTVSS", "VL": "DIVLTQSPDSLAVSLGERATINCQASQNIDGNTYMNWYQQKPGQPPKVLIYSIFNLESGVPDRFSGSGSGTDFTLTISSLQAEDVAVYYCQQSNDYPYTFGQGTKLEIK", "notes": "1F5 HC-4/2B8 LC2-1"}, "B14": {"name": "hu66 (antibody, V domains shown)", "VH": "B13 VH", "VL": "DIVLTQSPASLAVSPGQRATITCKASQNIDYDGYAYLNWYQQKPGQPPKVLIYSVFNLESGVPARFSGSGSGTDFTLTINPVEANDTANYYCQQSNEFPYTFGQGTKLEIK", "notes": "1F5 HC-4/1A2 LC2-1"}, "B15": {"name": "hu76 (antibody, V domains shown)", "VH": "B13 VH", "VL": "DIVLTQSPDSLAVSLGERATINCKASQNIDYDGYTYLNWYQQKPGQPPKVLIYSIFNLESGVPDRFSGSGSGTDFTLTISSLQAEDVAVYYCQQSNEVPYTFGQGTKLEIK", "notes": "1F5 HC-4/3E5 LC-1"}, "B16": {"name": "hu77 (antibody, V domains shown)", "VH": "B13 VH", "VL": "B15 VL with D32G, T35S, L37M, I55V, V98A", "notes": "1F5 HC-4/3H10 LC2-1"}, "B17": {"name": "hu136 (antibody, V domains shown)", "VH": "QVQLVQSGAEVKKPGASVKVSCKASGYTFTDYNMHWVRQAPGQGLEWMGNIYPYNAGTVYNQKFNNRVTLTVDTSSSTAYMELSRLRSDDTAVYYCAREGLGGYWGQGTLVTVSS", "VL": "EIVLTQSPATLSLSPGERATLSCKASQNIDFDGYAYMNWYQHKPGQAPRVLIYSVFNLESGIPARFSGSGSGTDFTLTISSLEPEDFAVYYCQQSHEVPYTFGQGTKLEIK", "notes": "2B8 HC1-3/1F5 LC1-2"}, "B18": {"name": "hu151 (antibody, V domains shown)", "VH": "B17 VH with A24T, G44R, N50Y, Y52S, A56G, V59A, N65K, N66F, R85S, D89E", "VL": "B15 VL with Y31F, T35A, L37M, Q42H, I55V, N96H", "notes": "3E5 HC-1/1F5 LC1-4"}, "B19": {"name": "hu86 (antibody, V domains shown)", "VH": "B17 VH with T30I, Y32F, G44R, N50Y, G57D, T58V, K63D, N65T, R85S, D89E", "VL": "B15 VL with Y31F, T35A, L37M, Q42H, I55V, N96H", "notes": "1F5 HC-5/1F5 LC1-4"}}, "note": "Substitutions are numbered along the chain they refer to.", "data": [{"molecular_target": "T1, Biotin-huCGRPaSA (human, not fully specified; biotin (position not given))", "T1 construct": "exact construct ('aSA') not explained; also called Biotin CGRPaSA; full-length (1-37) CGRP", "T1 peptide": "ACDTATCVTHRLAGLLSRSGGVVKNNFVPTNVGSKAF", "assay": "ELISA, supernatant; relative to chimeric C245", "in_short": "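Antibodies, including reference chimeric C245, titrated 2.5-fold from 1000 ng/mL and incubated 60 min at 37°C on wells coated with 1.0 μg/mL biotin-CGRPaSA and blocked with 2% BSA. Bound IgG detected with HRP anti-human Fc antibody and TMB, acid-stopped, absorbance 450/620 nm.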", "units": {"Relative binding activity, %": "%"}, "values": [{"binder": "B1", "Relative binding activity, %": 65}, {"binder": "B2", "Relative binding activity, %": 48}, {"binder": "B3", "Relative binding activity, %": 65}, {"binder": "B4", "Relative binding activity, %": 50}, {"binder": "B5", "Relative binding activity, %": 70}, {"binder": "B6", "Relative binding activity, %": 64}, {"binder": "B7", "Relative binding activity, %": 71}, {"binder": "B8", "Relative binding activity, %": 68}, {"binder": "B9", "Relative binding activity, %": 74}, {"binder": "B10", "Relative binding activity, %": 52}, {"binder": "B11", "Relative binding activity, %": 68}, {"binder": "B12", "Relative binding activity, %": 64}, {"binder": "B13", "Relative binding activity, %": 112}, {"binder": "B14", "Relative binding activity, %": 129}, {"binder": "B15", "Relative binding activity, %": 112}, {"binder": "B16", "Relative binding activity, %": 112}, {"binder": "B17", "Relative binding activity, %": 101}, {"binder": "B18", "Relative binding activity, %": 119}, {"binder": "B19", "Relative binding activity, %": 118}]}, {"molecular_target": "CGRP antigen", "assay": "cell-based or functional assay", "units": {"IC50": "µg/mL", "relative activity (%) vs C245": "%", "relative activity (%) vs Ref(TEVA)": "%"}, "values": [{"binder": "B1", "IC50": 0.0446, "relative activity (%) vs C245": 53}, {"binder": "B2", "IC50": 0.0851, "relative activity (%) vs C245": 28}, {"binder": "B3", "IC50": 0.039, "relative activity (%) vs C245": 46}, {"binder": "B4", "IC50": 0.0429, "relative activity (%) vs C245": 65}, {"binder": "B5", "IC50": 0.044, "relative activity (%) vs C245": 59}, {"binder": "B6", "IC50": 0.0464, "relative activity (%) vs C245": 56}, {"binder": "B7", "IC50": 0.0353, "relative activity (%) vs C245": 51}, {"binder": "B8", "IC50": 0.0877, "relative activity (%) vs C245": 30}, {"binder": "B9", "IC50": 0.0619, "relative activity (%) vs C245": 45}, {"binder": "B10", "IC50": 0.185, "relative activity (%) vs C245": 10}, {"binder": "B11", "IC50": 0.0267, "relative activity (%) vs C245": 88}, {"binder": "B12", "IC50": 0.0368, "relative activity (%) vs C245": 64}, {"binder": "B13", "IC50": 0.0739, "relative activity (%) vs Ref(TEVA)": 58}, {"binder": "B14", "IC50": 0.0566, "relative activity (%) vs Ref(TEVA)": 89}, {"binder": "B15", "IC50": 0.0649, "relative activity (%) vs Ref(TEVA)": 66}, {"binder": "B16", "IC50": 0.0778, "relative activity (%) vs Ref(TEVA)": 55}, {"binder": "B17", "IC50": 0.124, "relative activity (%) vs Ref(TEVA)": 28}, {"binder": "B18", "IC50": 0.0677, "relative activity (%) vs Ref(TEVA)": 48}, {"binder": "B19", "IC50": 0.134, "relative activity (%) vs Ref(TEVA)": 35}]}]}
